Results on 28 molecules are retold here after patent US20140179896A1 (published 2014).

The target of test [1] is T1, human vascular endothelial growth factor receptor-2 Fc chimera (KDR-Fc) (human, UniProt P35968 20-764).
T1 construct: range 1-764; also called human VEGFR-2; hKDR; not shown: human IgG1 Fc
As to the kind of experiment: binding to 1 nM KDR-Fc, % of input; radioactive equilibrium binding (assay not given). The procedure:
(§1) To prepare ³⁵S-labeled binding proteins for analysis, mRNA was prepared as described above for RNA-protein fusion production but the linker ligation step was omitted. The mRNA was expressed using rabbit reticulocyte lysate translation kit (Ambion) in the presence of ³⁵S-labeled Met at 30° C. for 1 hour. Expressed protein was purified on M2-agarose Flag beads (Sigma) as described above. This procedure produced the encoded protein without the nucleic acid tail. In a direct binding assay, VEGF-R2-Fc fusions in concentrations ranging from 0 to 200 nM were added to a constant concentration of the purified protein (0.2 or 0.5 nM) and incubated at 30° C. for 1 hour in buffer B. The receptor-binder complexes were captured using Protein A magnetic beads for another 10 minutes at room temperature using a Kingfisher™ The beads were washed with six reaction volumes of buffer B. The protein was eluted from the beads with 100 μL of 0.1 M KOH. […] of the reaction mixture and elution were dried onto a LumaPlate-96 (Packard) and the amount of ³⁵S on the plate was measured using a TopCount NXT instrument (Packard). The amount of fibronectin-based scaffold protein bound to the target was estimated as a percent of radioactivity eluted from Protein A magnetic beads compare to radioactivity in the reaction mixture. Nonspecific binding of fibronectin-based scaffold proteins to the beads was determined by measuring binding in the absence of KDR-Fc and represented less than 1-2% of the input. Specific binding was obtained through subtraction of nonspecific binding from total binding. Data was analyzed using the GraphPad Prizm software (GraphPad Software, Inc, San Diego, Calif.), fitted using a one site, non-linear binding equation.
T1 sequence (P35968 20-764 limits assumed, change not shown, form in doubt): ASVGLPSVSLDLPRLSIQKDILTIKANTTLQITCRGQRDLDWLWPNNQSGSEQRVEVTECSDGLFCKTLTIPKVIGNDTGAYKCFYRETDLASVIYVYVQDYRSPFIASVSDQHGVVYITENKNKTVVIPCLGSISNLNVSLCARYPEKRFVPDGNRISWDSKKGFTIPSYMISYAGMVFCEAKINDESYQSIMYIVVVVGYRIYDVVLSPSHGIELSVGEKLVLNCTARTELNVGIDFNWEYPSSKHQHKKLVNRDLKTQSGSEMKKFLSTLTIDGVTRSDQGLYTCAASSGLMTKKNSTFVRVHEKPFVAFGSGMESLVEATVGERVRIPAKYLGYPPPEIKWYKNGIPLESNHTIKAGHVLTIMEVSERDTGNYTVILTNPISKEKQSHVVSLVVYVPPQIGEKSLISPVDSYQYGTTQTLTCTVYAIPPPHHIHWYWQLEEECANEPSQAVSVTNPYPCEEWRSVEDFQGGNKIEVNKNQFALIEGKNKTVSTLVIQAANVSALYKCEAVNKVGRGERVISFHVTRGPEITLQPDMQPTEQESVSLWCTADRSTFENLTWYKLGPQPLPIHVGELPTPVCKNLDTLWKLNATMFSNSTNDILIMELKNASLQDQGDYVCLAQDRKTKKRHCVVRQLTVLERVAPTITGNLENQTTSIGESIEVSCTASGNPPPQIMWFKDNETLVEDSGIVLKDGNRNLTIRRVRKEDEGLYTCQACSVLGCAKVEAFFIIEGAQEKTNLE

For test [2], the target named is T2, mouse vascular endothelial growth factor receptor-2 Fc chimera (Flk-1-Fc) (mouse, UniProt P35918 20-762).
T2 construct: Purchased from R&D Systems; also called mouse VEGF-R2; not shown: Fc part of the purchased chimera
The test is described as follows: binding to 1 nM Flk-1-Fc, % of input; radioactive equilibrium binding (assay not given). The procedure:
as §1

The target in test [3] is T1, human vascular endothelial growth …. The test is described as follows: radioactive equilibrium binding (assay not given). The procedure: as §1
The target in test [4] is T3, human vascular endothelial growth factor receptor-2 Fc chimera (KDR-Fc) (human, UniProt P35968 20-764).
T3 construct: range 1-764; purchased from R&D Systems; also called hKDR; human VEGF-R2-Fc; not shown: human IgG1 Fc
The test is described as follows: radioactive equilibrium binding, 1 nM KDR-Fc. The procedure, abridged:
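Percent of input bound is specific binding: total ³⁵S eluted from Protein A beads minus nonspecific bead binding without receptor. The binder (0.2 or 0.5 nM) was incubated with titrated VEGF-R2-Fc in buffer B, 30° C, 1 h.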
T3 sequence (P35968 20-764 limits assumed, change not shown, form in doubt): as above

T2 sequence (P35918 20-762, change not shown): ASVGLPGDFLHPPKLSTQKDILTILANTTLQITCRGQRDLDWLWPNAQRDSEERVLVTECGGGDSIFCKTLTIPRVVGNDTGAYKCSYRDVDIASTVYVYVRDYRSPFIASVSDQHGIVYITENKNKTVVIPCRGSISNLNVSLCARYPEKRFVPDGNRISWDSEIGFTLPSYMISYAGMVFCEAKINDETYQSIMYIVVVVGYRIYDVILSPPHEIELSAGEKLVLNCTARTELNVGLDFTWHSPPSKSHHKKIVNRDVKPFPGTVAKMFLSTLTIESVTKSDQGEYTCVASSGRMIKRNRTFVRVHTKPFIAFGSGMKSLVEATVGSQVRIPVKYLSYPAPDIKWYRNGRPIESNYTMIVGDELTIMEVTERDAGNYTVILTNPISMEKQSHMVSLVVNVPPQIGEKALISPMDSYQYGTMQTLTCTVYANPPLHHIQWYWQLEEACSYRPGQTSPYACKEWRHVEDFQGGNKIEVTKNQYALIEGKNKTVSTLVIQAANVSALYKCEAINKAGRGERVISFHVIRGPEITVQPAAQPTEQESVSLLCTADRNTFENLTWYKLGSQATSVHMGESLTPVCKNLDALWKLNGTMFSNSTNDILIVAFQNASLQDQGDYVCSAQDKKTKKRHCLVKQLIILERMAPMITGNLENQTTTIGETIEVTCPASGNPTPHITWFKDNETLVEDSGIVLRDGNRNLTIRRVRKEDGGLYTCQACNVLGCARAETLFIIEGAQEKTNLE

B1: E8 (designed binder)
chain: EVVAATPTSLLISWRHPHFPTRYYRITYGETGGNSPVQEFTVPLQPPTATISGLKPGVDYTITGYAVTEEWNGRVLMTPISINYRT
notes: Del 1-8 10Fn3 clone; Flag tag of the radioactive-assay form not included
Regarding B1, in test [1], the “Binding to 1 nM KDR, %” value was found to be 51%. Also, the “Binding to 1 nM FLK, %” value in test [2] came out at 10%.

B2: K6 (designed binder)
chain: EVVAATPTSLLISWRHPHFPTRYYRITYGETGGNSPVQEFTVPLQPPTATISGLKPGVDYTITGYAVTDGKDGRVLLTPISINYRT
notes: Del 1-8 10Fn3 clone; Flag tag of the assay form not included
For the molecule B2, the dissociation constant Kd – broadly, the concentration at which binding is half-saturated – in test [3] turned out to be 0.93 nM. In test [1], the “Binding to 1 nM KDR, %” value stood at 27%.

B3: 4′B6 PR4 (designed binder)
chain: EVVAATPTSLLISWRHPHFPTRYYRITYGETGGNSPVQEFTVPLQPPTATISGLKPGVDYTITGYAVTLAQNDHELITPISINYRT
notes: tag left out
As for B3, the “Binding to 1 nM KDR, %” value in test [4] was 11%.

B4: K5 (designed binder)
chain: EVVAATPTSLLISWRHPHFPTRYYRITYGETGGNSPVQEFTVPLQPPTATISGLKPGVDYTITGYAVTMGPNDNELLTPISINYRT
notes: as for B2
On to B4, for which the Kd in test [3] worked out at 1.54 nM. Moreover, the “Binding to 1 nM KDR, %” value in test [1] was found to be 47%.

B5: K3 (designed binder)
chain: EVVAATPTSLLISWRHPHFPTRYYRITYGETGGNSPVQEFTVPLQPPTATISGLKPGVDYTITGYAVTAGWDDHELFIPISINYRT
notes: as for B2
Turning to B5, the Kd in test [3] turned out to be 1.15 nM. Further, the “Binding to 1 nM KDR, %” value in test [1] amounted to 45%.

B6: K11 (designed binder)
chain: EVVAATPTSLLISWRHPHFPTRYYRITYGETGGNSPVQEFTVPLQPPTATISGLKPGVDYTITGYAVTQAPNDRVLYTPISINYRT
notes: as for B2
Regarding B6, the Kd in test [3] is 1.16 nM. Besides, in test [1], the “Binding to 1 nM KDR, %” value was found to be 24%.

B7: K1 (designed binder)
chain: EVVAATPTSLLISWRHPHFPTRYYRITYGETGGNSPVQEFTVPLQPPTATISGLKPGVDYTITGYAVTMGLYGHELLTPISINYRT
notes: Del 1-8 10Fn3 clone; tag not included
Take B7: the Kd in test [3] came out at 0.55 nM. The “Binding to 1 nM KDR, %” value in test [1] stood at 48%.

B8: E21 (designed binder)
chain: EVVAATPTSLLISWRHPHFPTRYYRITYGETGGNSPVQEFTVPLQPPTATISGLKPGVDYTITGYAVTWGYKDHELLIPISINYRT
notes: as for B1
As for B8, in test [1], the “Binding to 1 nM KDR, %” value came to 47%.

B9: K13 (designed binder)
chain: EVVAATPTSLLISWRHPHFPTRYYRITYGETGGNSPVQEFTVPLQPPTATISGLKPGVDYTITGYAVTLALKGHELLTPISINYRT
notes: as for B2
Regarding B9, the Kd in test [3] was 0.58 nM. Further, in test [1], the “Binding to 1 nM KDR, %” value amounted to 17%.

B10: E13 (designed binder)
chain: EVVAATPTSLLISWRHPHFPTRYYRITYGETGGNSPVQEFTVPLQPPTATISGLKPGVDYTITGYAVTLEQNGRELMTPISINYRT
notes: as for B1
As to B10, in test [1], the “Binding to 1 nM KDR, %” value was determined as 38%.

B11: K14 (designed binder)
chain: EVVAATPTSLLISWRHPHFPTRYYRITYGETGGNSPVQEFTVPLQPPTATISGLKPGVDYTITGYAVTREENDHELLIPISINYRT
notes: as for B2
For B11, the Kd in test [3] is 0.57 nM. Also, the “Binding to 1 nM KDR, %” value in test [1] was found to be 20%.

B12: 4D2 PR3 (designed binder)
chain: EVVAATPTSLLISWRHPHFPTRYYRITYGETGGNSPVQEFTVPLQPPTATISGLKPGVDYTITGYAVTVAQNNHELITPISINYRT
notes: tag left out
In the case of B12, the “Binding to 1 nM KDR, %” value in test [4] is 8%.

B13: 4F12 PR3 (designed binder)
chain: EVVAATPTSLLISWRHPHFPTRYYRITYGETGGNSPVQEFTVPLQPPTATISGLKPGVDYTITGYAVTVTQNGHELITPISINYRT
notes: tag left out
Turning to B13, the “Binding to 1 nM KDR, %” value in test [4] stood at 13%.

B14: K15 (designed binder)
chain: EVVAATPTSLLISWRHPHFPTRYYRITYGETGGNSPVQEFTVPLQPPTATISGLKPGVDYTITGYAVTEVHHDREIKTPISINYRT
notes: as for B2
On to B14, for which, in test [3], the Kd worked out at 0.35 nM. Moreover, the “Binding to 1 nM KDR, %” value in test [1] stood at 25%.

B15: E10 (designed binder)
chain: EVVAATPTSLLISWRHPHFPTRYYRITYGETGGNSPVQEFTVPLQPPTATISGLKPGVDYTITGYAVTEGRNGRELFIPISINYRT
notes: Del 1-8 10Fn3 clone; Flag tag not included
Consider B15, for which, in test [1], the “Binding to 1 nM KDR, %” value came to 53%.

B16: E15 (designed binder)
chain: EVVAATPTSLLISWRHPHFPTRYYRITYGETGGNSPVQEFTVPLQPPTATISGLKPGVDYTITGYAVTLEPNGRYLMVPISINYRT
notes: as for B1
In the case of B16, the “Binding to 1 nM KDR, %” value in test [1] amounted to 52%.

B17: K4 (designed binder)
chain: EVVAATPTSLLISWRHPHFPTRYYRITYGETGGNSPVQEFTVPLQPPTATISGLKPGVDYTITGYAVTAGYNDQILMTPISINYRT
notes: as for B2
Consider B17, for which, in test [3], the Kd is 1.95 nM. Further, in test [1], the “Binding to 1 nM KDR, %” value amounted to 38%.

B18: K2 (designed binder)
chain: EVVAATPTSLLISWRHPHFPTRYYRITYGETGGNSPVQEFTVPLQPPTATISGLKPGVDYTITGYAVTDGENGQFLLVPISINYRT
notes: as for B2
Take B18: the dissociation constant (Kd) in test [3] was found to be 1.19 nM. The “Binding to 1 nM KDR, %” value in test [1] amounted to 48%.

B19: E22 (designed binder)
chain: EVVAATPTSLLISWRHPHFPTRYYRITYGETGGNSPVQEFTVPLQPPTATISGLKPGVDYTITGYAVTLGRNDRELLTPISINYRT
notes: as for B1
With B19, in test [1], the “Binding to 1 nM KDR, %” value is 45%.

B20: K10 (designed binder)
chain: EVVAATPTSLLISWRHPHFPTRYYRITYGETGGNSPVQEFTVPLQPPTATISGLKPGVDYTITGYAVTTGPNDRLLFVPISINYRT
notes: as for B2
As to B20, in test [3], the Kd turned out to be 0.57 nM. Also, the “Binding to 1 nM KDR, %” value in test [1] turned out to be 33%.

B21: K8 (designed binder)
chain: EVVAATPTSLLISWRHPHFPTRYYRITYGETGGNSPVQEFTVPLQPPTATISGLKPGVDYTITGYAVTVTHNGHPLMTPISINYRT
notes: as for B2
As for B21, the Kd in test [3] worked out at 3.3 nM. The “Binding to 1 nM KDR, %” value in test [1] came to 18%.

B22: E2 (designed binder)
chain: EVVAATPTSLLISWRHPHFPTRYYRITYGETGGNSPVQEFTVPLQPPTATISGLKPGVDYTITGYAVTDGPNDRLLNIPISINYRT
notes: as for B1
As for B22, the “Binding to 1 nM KDR, %” value in test [1] turned out to be 53%.

B23: K9 (designed binder)
chain: EVVAATPTSLLISWRHPHFPTRYYRITYGETGGNSPVQEFTVPLQPPTATISGLKPGVDYTITGYAVTFGLYGKELLIPISINYRT
notes: as for B2
B23: the Kd in test [3] was 1.8 nM. The “Binding to 1 nM KDR, %” value in test [1] came to 35%.

B24: K7 (designed binder)
chain: EVVAATPTSLLISWRHPHFPTRYYRITYGETGGNSPVQEFTVPLQPPTATISGLKPGVDYTITGYAVTSGHNDHMLMIPISINYRT
notes: as for B2
Regarding B24, the Kd in test [3] turned out to be 2.2 nM. In test [1], the “Binding to 1 nM KDR, %” value was 40%.

B25: K12 (designed binder)
chain: EVVAATPTSLLISWRHPHFPTRYYRITYGETGGNSPVQEFTVPLQPPTATISGLKPGVDYTITGYAVTDVYNDHEIKTPISINYRT
notes: as for B2
As to B25, the Kd in test [3] is 0.62 nM. Moreover, the “Binding to 1 nM KDR, %” value in test [1] turned out to be 29%.

B26: 4G4 PR3 (designed binder)
chain: EVVAATPTSLLISWRHPHFPTRYYRITYGETGGNSPVQEFTVPLQPPTATISGLKPGVDYTITGYAVTLGQNDHELLTPISINYRT
notes: tag left out
Take B26: the “Binding to 1 nM KDR, %” value in test [4] was 8%.

B27: 4′G8 PR4 (designed binder)
chain: EVVAATPTSLLISWRHPHFPTRYYRITYGETGGNSPVQEFTVPLQPPTATISGLKPGVDYTITGYAVTVAQNGHELLTPISINYRT
notes: tag left out
As for B27, the “Binding to 1 nM KDR, %” value in test [4] is 13%.

B28: E12 (designed binder)
chain: EVVAATPTSLLISWRHPHFPTRYYRITYGETGGNSPVQEFTVPLQPPTATISGLKPGVDYTITGYAVTFARDGHEILTPISINYRT
notes: as for B1
Take B28: the “Binding to 1 nM KDR, %” value in test [1] was 36%.
